Assay in all cases: EMSA
Data set [1] has as its target T1, POLGβ (his)10 (UniProt Q9UHN1 26-485).
T1 sequence: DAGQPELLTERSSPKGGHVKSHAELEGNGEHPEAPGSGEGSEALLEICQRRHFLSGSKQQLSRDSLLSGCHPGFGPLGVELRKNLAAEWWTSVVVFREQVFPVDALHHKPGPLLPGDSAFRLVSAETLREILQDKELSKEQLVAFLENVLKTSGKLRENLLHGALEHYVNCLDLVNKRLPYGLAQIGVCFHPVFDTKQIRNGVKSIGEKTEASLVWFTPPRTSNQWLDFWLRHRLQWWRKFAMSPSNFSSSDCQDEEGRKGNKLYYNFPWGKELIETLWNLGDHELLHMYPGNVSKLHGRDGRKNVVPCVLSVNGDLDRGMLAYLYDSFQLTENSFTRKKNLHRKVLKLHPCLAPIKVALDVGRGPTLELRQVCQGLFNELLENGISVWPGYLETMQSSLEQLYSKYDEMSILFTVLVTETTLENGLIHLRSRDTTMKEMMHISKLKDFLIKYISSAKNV

In data set [2] the target is T2, POLGα (UniProt P54098 26-1239).
Data set [3] addresses T2, POLGα. This is another data set of the same source.
The target in data set [4] is T1, POLGβ (his)10. This is another data set of the same source.

Where two headings read alike, the source gives them in different places.

T2 sequence (P54098 26-1239): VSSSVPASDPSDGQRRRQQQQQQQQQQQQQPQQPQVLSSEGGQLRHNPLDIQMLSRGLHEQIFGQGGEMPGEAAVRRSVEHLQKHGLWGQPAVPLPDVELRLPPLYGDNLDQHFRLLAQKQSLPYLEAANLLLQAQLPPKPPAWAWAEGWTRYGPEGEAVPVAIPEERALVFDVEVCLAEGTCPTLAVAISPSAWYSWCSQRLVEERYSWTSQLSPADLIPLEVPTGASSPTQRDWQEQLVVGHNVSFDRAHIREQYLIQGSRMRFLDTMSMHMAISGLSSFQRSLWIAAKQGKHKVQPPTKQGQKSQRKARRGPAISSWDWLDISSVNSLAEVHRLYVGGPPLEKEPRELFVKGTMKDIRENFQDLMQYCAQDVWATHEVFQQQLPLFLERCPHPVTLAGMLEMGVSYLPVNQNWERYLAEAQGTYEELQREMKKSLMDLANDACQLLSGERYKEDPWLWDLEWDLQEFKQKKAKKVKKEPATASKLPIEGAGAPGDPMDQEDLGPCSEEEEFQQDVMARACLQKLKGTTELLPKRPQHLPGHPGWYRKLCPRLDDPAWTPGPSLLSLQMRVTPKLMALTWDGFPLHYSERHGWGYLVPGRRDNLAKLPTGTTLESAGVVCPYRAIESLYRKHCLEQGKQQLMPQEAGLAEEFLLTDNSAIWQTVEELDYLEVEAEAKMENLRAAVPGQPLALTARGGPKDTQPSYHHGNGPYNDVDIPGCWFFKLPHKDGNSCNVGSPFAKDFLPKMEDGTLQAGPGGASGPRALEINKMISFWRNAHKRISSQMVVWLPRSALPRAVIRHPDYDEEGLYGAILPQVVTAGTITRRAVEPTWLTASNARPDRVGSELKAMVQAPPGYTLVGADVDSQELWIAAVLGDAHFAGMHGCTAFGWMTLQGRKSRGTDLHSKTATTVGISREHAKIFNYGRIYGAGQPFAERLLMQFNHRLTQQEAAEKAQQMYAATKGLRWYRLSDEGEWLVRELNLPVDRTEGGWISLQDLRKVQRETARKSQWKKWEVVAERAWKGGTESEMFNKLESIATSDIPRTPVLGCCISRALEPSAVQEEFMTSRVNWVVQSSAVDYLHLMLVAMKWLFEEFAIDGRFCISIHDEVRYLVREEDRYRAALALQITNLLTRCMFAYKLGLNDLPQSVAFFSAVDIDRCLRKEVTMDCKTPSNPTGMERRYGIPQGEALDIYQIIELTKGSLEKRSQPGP

For the molecule CCGGTCGTACGGAAAACCTGTATTTTCAGGGCT (ssDNA) [33-mer ss oligonucleotide], the binding result in the data set with POLGβ (his)10 [1] is “no binding”. Binding with POLGα [2] was characterised by a dissociation constant (Kd) of 92 nM.

B1: oligonucleotide C (free ss oligo) (ssDNA)
DNA: ACCGCTATGTATTTCGTACATTACTGCCAGCCACCATGAATATTGTACGGTACCATAAATACTTGACCACCTGTAGTACATAAAAACCCAATCCACATCAAAACCCCCTCCCCATGCTTA
On to B1, for which the binding result with POLGα [3] is “binds”; with POLGβ (his)10 [4], “no binding”.

The record behind these values is publication PMC2761280.
